In the series the target is T1, GSThPif1ΔN (Homo sapiens, UniProt Q9H611 167-641).
T1 sequence: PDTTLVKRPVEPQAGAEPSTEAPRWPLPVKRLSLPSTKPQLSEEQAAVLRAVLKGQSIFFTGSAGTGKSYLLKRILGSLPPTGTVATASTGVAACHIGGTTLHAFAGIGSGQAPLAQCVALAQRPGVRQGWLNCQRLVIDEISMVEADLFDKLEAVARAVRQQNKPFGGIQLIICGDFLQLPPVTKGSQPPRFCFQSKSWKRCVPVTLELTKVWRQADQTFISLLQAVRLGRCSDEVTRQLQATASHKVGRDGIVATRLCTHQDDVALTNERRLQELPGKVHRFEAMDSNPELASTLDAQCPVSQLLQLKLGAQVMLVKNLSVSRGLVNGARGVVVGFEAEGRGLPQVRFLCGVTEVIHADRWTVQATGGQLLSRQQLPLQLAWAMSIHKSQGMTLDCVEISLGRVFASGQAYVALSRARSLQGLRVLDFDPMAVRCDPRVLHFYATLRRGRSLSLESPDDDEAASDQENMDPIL
The experiment in a line: EMSA. (In general: Mobility shift assays separate free from complexed probe on a gel.)

In the case of TTAGGGTTAGGGTTAGGG (ssDNA) [tel18], the binding result is recorded as “binds”.

(Values after paper PMC1390689.)
